# Reference: US20240327460A1, “NORA INHIBITORS AND METHODS OF USE” (priority 2021, published 2024)
# Read-outs that look alike come from different tables or passages of the source.
# T1: S. aureus NorA with a carboxy-terminal decahistidine tag, purified (Staphylococcus aureus), Q5HHX4
# T1 chain: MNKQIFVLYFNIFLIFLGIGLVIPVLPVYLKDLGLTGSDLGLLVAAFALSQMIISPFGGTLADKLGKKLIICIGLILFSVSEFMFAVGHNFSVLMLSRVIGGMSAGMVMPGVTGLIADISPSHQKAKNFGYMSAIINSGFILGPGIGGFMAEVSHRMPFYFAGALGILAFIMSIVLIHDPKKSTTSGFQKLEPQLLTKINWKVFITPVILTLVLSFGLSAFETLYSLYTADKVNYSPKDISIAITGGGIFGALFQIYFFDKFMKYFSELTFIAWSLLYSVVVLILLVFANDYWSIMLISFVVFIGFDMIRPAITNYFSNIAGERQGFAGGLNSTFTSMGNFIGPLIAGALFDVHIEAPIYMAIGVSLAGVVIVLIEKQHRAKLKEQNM
# T2: Native NorA of MRSA (USA300 strain JE2) (Staphylococcus aureus), Q5HHX4
# T2 chain: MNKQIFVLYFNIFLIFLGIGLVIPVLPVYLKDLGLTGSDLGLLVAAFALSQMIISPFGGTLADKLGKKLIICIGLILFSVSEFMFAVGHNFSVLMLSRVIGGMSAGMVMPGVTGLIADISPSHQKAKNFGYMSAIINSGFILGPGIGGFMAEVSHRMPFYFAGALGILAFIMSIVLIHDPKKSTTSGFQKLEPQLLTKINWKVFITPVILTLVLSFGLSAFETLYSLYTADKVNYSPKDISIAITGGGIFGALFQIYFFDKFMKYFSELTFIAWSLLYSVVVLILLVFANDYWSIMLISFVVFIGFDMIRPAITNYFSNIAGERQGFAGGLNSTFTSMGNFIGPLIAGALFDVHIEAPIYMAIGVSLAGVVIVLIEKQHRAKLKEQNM
# T3: S. aureus NorA with a carboxy-terminal decahistidine tag, purified (Staphylococcus aureus, UniProt Q5HHX4 1-388)
# T3 construct: not shown: carboxy-terminal decahistidine tag
# T3 sequence: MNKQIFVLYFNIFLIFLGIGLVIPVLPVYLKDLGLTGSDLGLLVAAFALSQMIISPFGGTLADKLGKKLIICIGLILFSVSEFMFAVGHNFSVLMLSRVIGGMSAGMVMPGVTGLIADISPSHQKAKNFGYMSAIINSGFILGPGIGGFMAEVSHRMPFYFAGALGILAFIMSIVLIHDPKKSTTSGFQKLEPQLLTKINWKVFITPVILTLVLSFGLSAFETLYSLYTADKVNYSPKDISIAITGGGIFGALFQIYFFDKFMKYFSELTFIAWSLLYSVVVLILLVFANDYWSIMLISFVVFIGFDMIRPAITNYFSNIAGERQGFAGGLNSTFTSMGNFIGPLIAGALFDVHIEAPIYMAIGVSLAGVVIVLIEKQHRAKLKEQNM
# T4: NorA (Staphylococcus aureus, UniProt Q5HHX4)
# T4 construct: made in house; host or cells: C43 (DE3) E. coli
# T4 sequence (Q5HHX4 whole entry, looked up): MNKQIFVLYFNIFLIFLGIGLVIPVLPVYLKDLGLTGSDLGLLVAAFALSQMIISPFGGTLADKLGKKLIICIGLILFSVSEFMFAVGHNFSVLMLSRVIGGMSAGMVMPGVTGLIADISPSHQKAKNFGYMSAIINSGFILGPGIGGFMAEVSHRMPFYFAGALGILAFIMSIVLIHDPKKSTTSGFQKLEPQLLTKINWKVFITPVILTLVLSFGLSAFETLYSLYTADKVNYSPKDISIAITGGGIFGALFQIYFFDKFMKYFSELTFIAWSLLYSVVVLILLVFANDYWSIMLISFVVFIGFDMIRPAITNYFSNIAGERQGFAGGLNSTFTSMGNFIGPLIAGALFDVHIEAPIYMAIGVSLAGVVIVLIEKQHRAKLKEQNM
# B1: NPI-1 (NorA peptide inhibitor), NH2-…-CONH2 (peptide)
# peptide: H-YYYYAWRVGGYWR-NH2
# B2: Fab36 (Fab, V domains shown)
# VH: EVQLVESGGGLVQPGGSLRLSCAASGFTFSSSSIHWVRQAPGKGLEWVASISSSSGSTSYADSVKGRFTISADTSKNTAYLQMNSLRAEDTAVYYCARYSRYYYYAWRVGGYWGGLDYWGQGTLVTVSS
# VL: DIQMTQSPSSLSASVGDRVTITCRASQSVSSAVAWYQQKPGKAPKLLIYSASSLYSGVPSRFSGSRSGTDFTLTISSLQPEDFATYYCQQSSSSLITFGQGTKVEIKR
# notes: also called N3-36
# B3: Fab36^R134A (Fab, V domains shown)
# VH: EVQLVESGGGLVQPGGSLRLSCAASGFTFSSSSIHWVRQAPGKGLEWVASISSSSGSTSYADSVKGRFTISADTSKNTAYLQMNSLRAEDTAVYYCARYSRYYYYAWAVGGYWGGLDYWGQGTLVTVSS
# VL: DIQMTQSPSSLSASVGDRVTITCRASQSVSSAVAWYQQKPGKAPKLLIYSASSLYSGVPSRFSGSRSGTDFTLTISSLQPEDFATYYCQQSSSSLITFGQGTKVEIKR
# B4: Fab36^W133A (Fab, V domains shown)
# VH: EVQLVESGGGLVQPGGSLRLSCAASGFTFSSSSIHWVRQAPGKGLEWVASISSSSGSTSYADSVKGRFTISADTSKNTAYLQMNSLRAEDTAVYYCARYSRYYYYAARVGGYWGGLDYWGQGTLVTVSS
# VL: DIQMTQSPSSLSASVGDRVTITCRASQSVSSAVAWYQQKPGKAPKLLIYSASSLYSGVPSRFSGSRSGTDFTLTISSLQPEDFATYYCQQSSSSLITFGQGTKVEIKR
# B5: Fab25: synthetic antigen-binding fragment binding NorA; CDRH3 SEQ ID NO: 6; VH SEQ ID NO: 30, VL SEQ ID NO: 31 (antibody, V domains shown)
# VH: EVQLVESGGGLVQPGGSLRLSCAASGFTFSSSSIHWVRQAPGKGLEWVASISSSSGSTSYADSVKGRFTISADTSKNTAYLQMNSLRAEDTAVYYCARWETGYYPYWRMYGFYWALDYWGQGTLVTVSS
# VL: DIQMTQSPSSLSASVGDRVTITCRASQSVSSAVAWYQQKPGKAPKLLIYSASSLYSGVPSRFSGSRSGTDFTLTISSLQPEDFATYYCQQSSSSLITFGQGTKVEIKRTV
# modifications: NorA Antibody N3-25, Heavy Chain Variable Region; NorA Antibody N3-25, Light Chain Variable Region
# B6: Fab36^R134A (antibody, V domains shown)
# VH: EVQLVESGGGLVQPGGSLRLSCAASGFTFSSSSIHWVRQAPGKGLEWVASISSSSGSTSYADSVKGRFTISADTSKNTAYLQMNSLRAEDTAVYYCARYSRYYYYAWAVGGYWGGLDYWGQGTLVTVSS
# VL: DIQMTQSPSSLSASVGDRVTITCRASQSVSSAVAWYQQKPGKAPKLLIYSASSLYSGVPSRFSGSRSGTDFTLTISSLQPEDFATYYCQQSSSSLITFGQGTKVEIKRTV
# B7: Fab36: synthetic antigen-binding fragment binding NorA; CDRH3 SEQ ID NO: 7; VH SEQ ID NO: 32, VL SEQ ID NO: 33 (antibody, V domains shown)
# VH: EVQLVESGGGLVQPGGSLRLSCAASGFTFSSSSIHWVRQAPGKGLEWVASISSSSGSTSYADSVKGRFTISADTSKNTAYLQMNSLRAEDTAVYYCARYSRYYYYAWRVGGYWGGLDYWGQGTLVTVSS
# VL: DIQMTQSPSSLSASVGDRVTITCRASQSVSSAVAWYQQKPGKAPKLLIYSASSLYSGVPSRFSGSRSGTDFTLTISSLQPEDFATYYCQQSSSSLITFGQGTKVEIKRTV
# modifications: NorA Antibody N3-36, Heavy Chain Variable Region; NorA Antibody N3-36, Light Chain Variable Region
# Experiments:
# MRSA = assay type: cell-based, Staphylococcus aureus; conditions: 12.5 μg/ml norfloxacin
# Experimental: To test the effects of peptides, overnight cultures of wild-type MRSA and MRSA^ΔnorA in TSB media were diluted 1:1,000 in TSB with varying concentrations of peptides, in the presence or the absence of norfloxacin (12.5 μg/ml). All the peptide concentrations contained equal amount of the DMSO vehicle. OD600nm was measured as a function of time in a BioScreen C device at 37° C. with shaking between measurements every 15 min. Three independent experiments were acquired; reported errors reflect the standard deviation among the independent experiments.
# [1] = target: T1, S. aureus NorA with a carboxy-terminal …
# [2] = target: T2, Native NorA of MRSA (USA300 strain JE2) …; assay: cell-based or functional assay
# [3] = target: T1, S. aureus NorA with a carboxy-terminal …
# [4] = target: T3, S. aureus NorA with a carboxy-terminal …; assay: MST
# [5] = target: T3, S. aureus NorA with a carboxy-terminal …
# [6] = target: T3, S. aureus NorA with a carboxy-terminal …; assay: MST; range is the 95% confidence interval of the non-linear fit
# [7] = target: T3, S. aureus NorA with a carboxy-terminal …; remark: listed apart in the source
# NorA [8] = target: T4, NorA; assay: NorA pull-down from E. coli co-expressing NorA and Fabs, immunoblot; assay type: binding, S. aureus; conditions: co-expression with 0.2% arabinose
# NorA [9] = target: T4, NorA; assay: Microscale thermophoresis (MST) binding of fluorescently labelled Fabs to NorA in PMAL-C8 amphipol; parameters: species or system S. aureus; conditions: labelled Fab 40 nM
# Experimental: Amphipol-purified NorA underwent an additional round of SEC to remove free amphipol. Purified Fabs were prepared as described above and labelled with a primary amine-reactive 647 nm fluorophore (Nanotemper) according to the manufacturer's instructions. Efficient labelling was verified spectroscopically by measuring absorbance at 280 and 650 nm. Microscale thermophoresis (MST) experiments were performed on a Monolith NT.115 Pico instrument (Nanotemper Technologies). Labelled Fab at 40 nM final concentration was mixed with NorA in 20 mM Tris pH 7.0, 100 mM NaCl, and 0.025% (w/v) Tween-20. All samples were incubated for 15 min and loaded into premium glass capillaries. The normalized fluorescent signal (Fnorm) was plotted as a function of ligand concentration and fit with a non-linear sigmoidal regression model (GraphPad Prism) using a Hill slope equal to 1.0 to obtain the Kd values. The error in Kd values for Fab25 (1.2±0.7 μM) and Fab36 (140±20 nM) represent the average and standard deviation of two independent runs with three replicates per independent run. The error range in the Kd value for Fab36^W133A (2 to 4 μM) corresponds to the 95% confidence interval of the non-linear fit. […] MST binding experiments with Fab36^W133A and Fab36^R134A were collected with three replicates each.
# NorA [10] = target: T4, NorA; assay: Inhibition of NorA by Fabs in E. coli (co-expression growth inhibition assay); assay type: cell-based, S. aureus; conditions: E. coli co-expressing NorA and Fab; for E. coli growth inhibition in the presence of norfloxacin: 1.2 μg/ml norfloxacin, arabinose-induced Fab, OD600nm; for E. coli growth inhibition in the absence of norfloxacin: no norfloxacin
# From the text: NorA was encoded in a pTrcHis2C plasmid (ampicillin resistance) with a C-terminal myc-tag (Yu et al., “NorA Functions as a Multidrug Efflux Protein in Both Cytoplasmic Membrane Vesicles and Reconstituted Proteoliposomes,” J Bacteriol 184:1370-1377 (2002), which is hereby incorporated by reference in its entirety), while Fabs were cloned in a pBAD33 plasmid (gentamicin resistance) (Jimenez et al., “Genetics and Proteomics of Aeromonas salmonicida Lipopolysaccharide Core Biosynthesis,” J Bacteriol 191:2228-2236 (2009), which is hereby incorporated by reference in its entirety) with a C-terminal Avi-tag on the heavy chain of the Fab. Competent Top10 E. coli were co-transformed with vectors containing NorA and Fabs (Fab25, Fab36, or Fabcontrol) and grown on LB agar plates infused with carbenicillin and gentamicin. For time dependent growth curves, a single colony from the transformation was inoculated into TBG media in the presence of carbenicillin and gentamicin. The culture was grown to saturation for ˜20 hr at 30° C. Cultures were diluted by 300-fold into fresh TBG media containing carbenicillin and gentamicin, norfloxacin (0 or 1.2 μg/ml), and arabinose (0%, 0.0001%, 0.0005%, 0.0025%, 0.01%, 0.05%, 0.1%, 0.2%, 0.4%, or 0.8%). OD600nm was measured as a function of time in a BioScreen Pro C device at 30° C. with shaking between measurements every 15 min. Four independent experiments were acquired with two technical replicates per experiment; reported errors reflect the standard deviation among the experiments. Immunoblot (IB) analyses were performed on E. coli lysates co-expressing NorA and Fabs following 24 hr of growth in TBG media in the absence of norfloxacin. Primary antibodies at 1:1,000 dilutions detected the C-terminal myc tag on NorA (Genscript) and the C-terminal Avi tag on the heavy chain of the Fab (Genscript). IB analyses were repeated two independent times.
# The insertion of Fab CDRH3 loops into the substrate binding pocket of NorA, as observed in the cryo-EM structures, afforded the expectation that Fab binding would inhibit antibiotic efflux (FIGS. 1A-1D, 4G). […] Since NorA is located within the inner membrane and confers norfloxacin resistance to E. coli (FIG. 6D), growth inhibition was assessed by co-expressing Fabs in the periplasm to allow access to the extracellular face of NorA. Growth curves (OD600 nm vs. time) were quantified with or without norfloxacin and with variable concentrations of arabinose for inducing Fab expression.
molecule,measurement,setting,value
"NH2-YYYYAWEVGGYWR-CONH2 (H-YYYYAWEVGGYWR-NH2) [NPI-2, control peptide substituting a glutamate for the arginine residue in the tryptophan-arginine motif, reference compound]",growth arrest of MRSA in the presence of norfloxacin,MRSA,displayed no growth arrest of MRSA
B1,EC50,[1],6.29 µM
same,"IC50 of dose-dependent growth inhibition of MRSA in the presence of norfloxacin (12.5 µg/ml), 10 hr timepoint",[2],0.72 µM
same,IC50 (read off the curve),[3],7 µM
B2,fold tighter binding affinity against Fab25,[4],~9 fold
same,Kd,[5],0.14 µM
B3,fold reduced binding affinity against Fab36,[4],> 100 fold
B4,fold reduced binding affinity against Fab36,[4],~20 fold
same,Kd,[6],2 to 4 µM
same,Kd,[7],2.8 µM
B5,Fab in elution fraction of purified NorA,NorA [8],contained the Fabs as detected through immunoblotting
same,Kd,NorA [9],1.2 ± 0.7 µM
same,E. coli growth inhibition in the presence of norfloxacin,NorA [10],"showed inhibition of NorA, albeit to a lesser extent than for Fab36"
same,E. coli growth inhibition in the absence of norfloxacin,NorA [10],no growth inhibition
B6,Kd,NorA [9],> 14 µM
B7,Fab in elution fraction of purified NorA,NorA [8],contained the Fabs as detected through immunoblotting
same,E. coli growth inhibition in the presence of norfloxacin,NorA [10],strongly attenuated E. coli growth in an arabinose-dependent manner
same,E. coli growth inhibition in the absence of norfloxacin,NorA [10],no growth inhibition
